Test results taken from PMC10187921, “A fully human neutralizing monoclonal antibody targeting a highly conserved epitope of the human cytomegalovirus glycoprotein B” (PLOS ONE, 2023).

Columns and labels:
[1] = biological target: glycoprotein B of 42 Japanese clinical isolates (39 tested in MRC-5, 24 in ARPE-19 cells) (human cytomegalovirus)
[2] = biological target: glycoprotein B of eight Japanese clinical isolates (2009-889, I88-55, I144-44, H12-42, H12-43, H1-10, H1-15, MDU-1) (human cytomegalovirus)
[3] = biological target: T1, Human cytomegalovirus glycoprotein B (strain AD169) on infectious virions (Human cytomegalovirus, strain AD169, UniProt P06473); assay: cell-based or functional assay
[4] = biological target: T2, Recombinant AD-1 protein from HCMV gB (strain AD169, amino acids 541-658), fused with glutathione … (Human cytomegalovirus, strain AD169, UniProt P06473); assay: SPR; Biacore T200; EV2038 (0.33 μg/mL) captured by anti-IgG (Fc) antibody on a CM5 chip; recombinant AD-1 injected as analyte; 1:1 binding model; settings: both partners purified
T2 construct: antigenic domain 1 (AD-1) of human cytomegalovirus glycoprotein B, strain AD169, amino acids 541-658, UniProtKB P06473; The printed size of 40.7 kDa fits the fusion with GST still on it; no cleavage is told; Vector pGEX4T; also called recombinant antigenic domain 1; source: E. coli BL21 (DE3), solubilized with 0.5% sarkosyl, purified (SDS-PAGE, electroelution, dialysis against PBS)

[5] = biological target: T1, Human cytomegalovirus glycoprotein B …; assay: SPR; Biacore T200; infectious virions (strain AD169, 1.6 × 10^8 plaque-forming units/mL) trapped by captured MSL-109 (anti-gH/gL); EV2038 injected as analyte; 1:1 binding model; settings: one partner purified

T1 sequence (P06473 32-906): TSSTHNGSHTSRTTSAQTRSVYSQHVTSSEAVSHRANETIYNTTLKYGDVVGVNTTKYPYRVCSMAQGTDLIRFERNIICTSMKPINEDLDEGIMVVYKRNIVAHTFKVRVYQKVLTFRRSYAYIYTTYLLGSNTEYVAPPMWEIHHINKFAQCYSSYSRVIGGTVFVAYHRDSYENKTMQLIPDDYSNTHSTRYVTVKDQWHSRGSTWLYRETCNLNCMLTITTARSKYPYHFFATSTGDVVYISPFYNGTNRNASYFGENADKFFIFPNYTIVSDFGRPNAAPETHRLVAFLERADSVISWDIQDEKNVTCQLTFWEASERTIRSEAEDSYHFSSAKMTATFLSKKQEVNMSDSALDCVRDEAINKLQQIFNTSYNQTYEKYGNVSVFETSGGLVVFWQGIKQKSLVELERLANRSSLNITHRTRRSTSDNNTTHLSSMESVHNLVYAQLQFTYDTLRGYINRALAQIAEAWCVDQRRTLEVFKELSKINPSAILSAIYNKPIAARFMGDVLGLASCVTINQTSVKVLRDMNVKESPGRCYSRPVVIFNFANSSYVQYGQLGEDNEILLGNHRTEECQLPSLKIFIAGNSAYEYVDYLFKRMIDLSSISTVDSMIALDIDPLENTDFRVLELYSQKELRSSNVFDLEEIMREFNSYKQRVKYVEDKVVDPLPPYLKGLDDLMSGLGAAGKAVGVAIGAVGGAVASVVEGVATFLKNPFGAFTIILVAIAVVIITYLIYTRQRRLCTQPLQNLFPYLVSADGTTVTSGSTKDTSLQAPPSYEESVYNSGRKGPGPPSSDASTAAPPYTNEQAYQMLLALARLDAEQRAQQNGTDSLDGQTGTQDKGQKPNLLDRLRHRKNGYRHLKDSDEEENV
T2 sequence (P06473 541-658): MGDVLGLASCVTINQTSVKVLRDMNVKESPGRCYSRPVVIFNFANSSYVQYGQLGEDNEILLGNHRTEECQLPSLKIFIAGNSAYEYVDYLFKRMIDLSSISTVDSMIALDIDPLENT

B1: EV2038 (IgG1 lambda), fully human neutralizing monoclonal antibody (antibody, V domains shown)
VH: QVQLQQWGAGLLKPSETLSLTCAVYGGSFSGYYWGWIRQPPGKGLEWIGEINHSGSANSNPSLKSRVTMSVDTSKNQFSLKVSSVTAADTAVYFCARVTRDLEWIPGDYYMDVWGKGTTVTVSS
VL: QSVLTQPPSASGTPGQRVSISCSGSLSNIGTNYVYWYQQLPGTAPKLLIFKNNQRPSGVPDRFSGSKSGTSASLAISGLRSEDEADYYCAAWDDSLNGYVFGTGTKVTVL
notes: heavy chain framework 1: only the Kabat CDRs are printed; heavy chain CDR1 (Kabat); heavy chain CDR2 (Kabat); heavy chain CDR3 (Kabat); constant region of human IgG1 heavy chain; light chain framework 1: only the Kabat CDRs are printed; light chain CDR1 (Kabat); light chain CDR2 (Kabat); light chain CDR3 (Kabat); constant region of a human lambda light chain; IgG1 lambda; the frameworks are not; …
IC50 of neutralisation of HCMV infection, plaque reduction assay, 24 clinical isolates in ARPE-19 cells [1]: 0.013 to 0.105 µg/mL
IC50 of neutralisation of HCMV infection, plaque reduction assay, 39 clinical isolates in MRC-5 cells [1]: 0.013 to 0.103 µg/mL
IC90 of neutralisation of HCMV infection, plaque reduction assay, 24 clinical isolates in ARPE-19 cells [1]: 0.208 to 1.03 µg/mL
IC90 of neutralisation of HCMV infection, plaque reduction assay, 39 clinical isolates in MRC-5 cells [1]: 0.215 to 0.901 µg/mL
IC50 of inhibition of viral cell-to-cell spread, focus expansion assay, eight clinical isolates in ARPE-19 cells [2]: 1 to 3.1 µg/mL
IC90 of inhibition of viral cell-to-cell spread, focus expansion assay, eight clinical isolates in ARPE-19 cells [2]: 13 to 19 µg/mL
IC50 of neutralisation of HCMV infection (strain AD169) after two passages of virus grown with mAbs, preliminary study [3]: 0.08 to 0.18 µg/mL
IC50 of neutralisation of HCMV infection (strain AD169) in MRC-5 cells, without anti-CMV agents [3]: ~0.1 µg/mL
Kd [4]: 5.73 nM
koff [4]: 0.000279 s⁻¹
Kd [5]: 0.224 nM
koff [5]: 0.00113 s⁻¹
